Source: article PMC7822688, “W196 and the β-Hairpin Motif Modulate the Redox Switch of Conformation and the Biomolecular Interaction Network of the Apoptosis-Inducing Factor” (Oxidative Medicine and Cellular Longevity, 2021)

Key:
Conditions in all cases: both partners purified
[1] = target: T1, W196Y hAIF_(Δ1-101) (human, UniProt O95831 102-613, W196Y); assay: ITC; Auto-iTC200, 25°C, 50 mM potassium phosphate, pH 7.4; 10-20 μM protein partner titrated into ~10 μM hAIF_(∆1-101) variant in the CTC state (premixed with NADH at a 1 : 100 ratio); single-ligand binding site model
T1 construct: FAD holoprotein; 'ox' oxidized, 'CTC' after reduction with NADH; The His6 tag is called cleavable; whether it was cleaved is told only in the supplementary materials; also called W196Yox; W196Y CTC; source: E. coli C41 (DE3), purified to homogeneity (protocol in the supplementary materials)
T1 sequence (O95831 102-613 W196Y): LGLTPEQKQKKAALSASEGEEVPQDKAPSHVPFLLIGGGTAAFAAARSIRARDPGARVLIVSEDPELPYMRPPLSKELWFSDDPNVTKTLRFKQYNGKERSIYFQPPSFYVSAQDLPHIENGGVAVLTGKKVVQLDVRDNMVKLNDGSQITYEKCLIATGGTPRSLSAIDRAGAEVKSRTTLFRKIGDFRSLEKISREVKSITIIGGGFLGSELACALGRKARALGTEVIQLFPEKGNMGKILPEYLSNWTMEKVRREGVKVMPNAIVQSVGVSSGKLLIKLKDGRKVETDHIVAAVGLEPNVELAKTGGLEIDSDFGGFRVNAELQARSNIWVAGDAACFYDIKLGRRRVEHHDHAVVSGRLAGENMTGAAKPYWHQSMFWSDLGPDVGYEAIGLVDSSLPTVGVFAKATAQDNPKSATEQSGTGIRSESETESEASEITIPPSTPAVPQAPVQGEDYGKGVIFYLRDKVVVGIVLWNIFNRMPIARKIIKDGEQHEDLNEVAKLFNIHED

[2] = target: T2, W196A hAIF_(Δ1-101) (human, UniProt O95831 102-613, W196A); assay: as above
T2 construct: FAD holoprotein; 'ox' oxidized, 'CTC' after reduction with NADH; The His6 tag is called cleavable; whether it was cleaved is told only in the supplementary materials; also called W196Aox; source: E. coli C41 (DE3), purified to homogeneity (protocol in the supplementary materials)
T2 sequence (O95831 102-613 W196A): as the sequence (O95831 102-613 W196Y) above, with Y95A counted along it

[3] = target: T3, WT human apoptosis-inducing factor hAIF_(Δ1-101) (human, UniProt O95831 102-613); assay: as above
T3 construct: FAD holoprotein. 'ox' is the oxidized protein; 'CTC' is the same protein reduced by an excess of NADH (FADH-/NAD+ charge transfer complex); The His6 tag is called cleavable; whether it was cleaved is told only in the supplementary materials; also called WTox; source: protocol in the supplementary materials
T3 sequence (O95831 102-613, stated change not applied): as the sequence (O95831 102-613 W196Y) above, with Y95W counted along it

[4] = target: T2, W196A hAIF_(Δ1-101); assay: ITC; Auto-iTC200, 25°C, 50 mM potassium phosphate, pH 7.4; 10-20 μM protein partner titrated into ~10 μM oxidized hAIF_(∆1-101) variant, without NADH; single-ligand binding site model

Kd [1]: 2100 nM | dH [1]: -8.2 kcal/mol | Kd [2]: 500 nM | dH [2]: -5.9 kcal/mol | Kd [4]: 400 nM | dH [4]: 9.6 kcal/mol
B1: human CHCHD4 (coiled-coil-helix-coiled-coil-helix domain containing 4) (natural protein, UniProt Q8N4Q1 1-142, looked up)
chain: MSYCRQEGKDRIIFVTKEDHETPSSAELVADDPNDPYEEHGLILPNGNINWNCPCLGGMASGPCGEQFKSAFSCFHYSTEEIKGSDCVDQFRAMQECMQKYPDLYPQEDEDEEEEREKKPAEQAEETAPIEATATKEEEGSS
notes: human CHCHD4, UniProtKB Q8N4Q1; synthetic codon-optimised cDNA in pET28a (NdeI-NotI); The His6 tag is called cleavable; whether it was cleaved is told only in the supplementary materials; source: E. coli C41 (DE3), purified (protocol in the supplementary materials)
Kd [3]: 200 nM | dH [3]: -20.1 kcal/mol
